Consider one molecule from patent US9526786B2, “Thermostabilization of proteins” (The Trustee of Columbia University in the City of New York, priority 2007, dated 2016).

For data set [1] the following is noted: 37° C., absence of DTT. As to the method:
Analysis of CocE action on cocaine cleavage is performed by utilizing the spectroscopic properties of cocaine, which maximally absorbs light at a 240 nm wavelength. CocE activity is measured by monitoring for a decrease in signal at A240, using various concentrations of cocaine, and determining the initial rate of the decrease. From these values the Vmax of the enzyme can be determined. By pre-incubating the enzyme at 37° C. for various times before monitoring for activity, the half life of CocE at 37° C. can be calculated.
The initial rates (of decay) were determined by following the change in the intrinsic absorbance of cocaine at 240 nm (6700 M^1 cm^1)(Xie et al., 1999) using a SpectraMax Plus 384 UV plate reader (Molecular Devices, Sunnyvale, Calif.) using SOFTmax Pro software (Version 3.1.2). The reaction was initiated by adding 100 μL of a 2× enzyme solution (100 mM phosphate buffer, pH 7.4 and 300 mM NaCl) to 100 μL of a 2× cocaine solution (50 μg/mL enzyme, 100 mM Phosphate Buffer, pH 7.4 and 300 mM NaCl). All assays were performed with 100 μM DTT unless indicated otherwise. […] For stability measurements, wild type and mutant enzymes were diluted to 2× concentration and incubated at 37° C. for the times indicated. At the end of each time point, an aliquot was removed and kinetic behavior was observed as outlined above.
(§1) In vitro kinetic assays. […] Initial rates were then used to determine Michaelis-Menten parameters. To assess thermal stability, enzyme preparations were preincubated at 37° C. for various lengths of time, prior to measurement of residual activities (Table 1 and FIG. 23).

A short description of data set [2]: Michaelis-Menten kinetics of cocaine hydrolysis (absorbance at 240 nm). The data set is classed as biochemical. Particulars: cocaine. As to the method: The initial rates (of decay) were determined by following the change in the intrinsic absorbance of cocaine at 240 nm (6700 M^1 cm^1)(Xie et al., 1999) using a SpectraMax Plus 384 UV plate reader (Molecular Devices, Sunnyvale, Calif.) using SOFTmax Pro software (Version 3.1.2). The reaction was initiated by adding 100 μL of a 2× enzyme solution (100 mM phosphate buffer, pH 7.4 and 300 mM NaCl) to 100 μL of a 2× cocaine solution (50 μg/mL enzyme, 100 mM Phosphate Buffer, pH 7.4 and 300 mM NaCl). All assays were performed with 100 μM DTT unless indicated otherwise. Final cocaine concentrations were as follows: 125, 62.5, 31.25, 15.63, 7.81, 3.91, 1.95, and 0.977 μM. Vmax and Km values were calculated using Prism (GraphPad Software, San Diego). For stability measurements, wild type and mutant enzymes were diluted to 2× concentration and incubated at 37° C. for the times indicated. At the end of each time point, an aliquot was removed and kinetic behavior was observed as outlined above.
as §1
Determination of Catalytic Efficiency. To determine the catalytic activity a spectrophometric assay was performed. Samples of L169K/G173Q CocE were added to a 96-well UV permeable plate containing increasing cocaine concentrations (0.5, 2.5, 5, 12.5, 25, 50, 100, and 150 μM) to give a final concentration of 10 ng/ml CocE in a final volume of 200 μl. The change in absorbance at 240 nm was measured over 20 minutes, with readings every 10 seconds, by a SpectraMax Plus 384 UV plate reader (Molecular Devices, Sunnyvale, Calif.) using SOFTmax Pro software (Version 3.1.2). The change in absorbance was converted to the change in concentration and furthermore the rate of decay per mole enzyme is determined (Kcat). Kcat and Km of the enzyme are determined using Prism (GraphPad software, San Diego).

A short description of data set [3]: Temperature-dependent decay in esterase activity (30 min pre-incubation). The data set is classed as biochemical. As to the method: FIG. 26 is a graph showing temperature-dependent decay in esterase activity. 50 ng/ml wild-type CocE and the mutants were pre-incubated for 30 min at temperatures indicated (° C.) and activity measured (Xie et al., 1999). The activity of each mutant remaining (as a percentage of the maximal activity, Vmax, without preincubation) following pre-incubation are illustrated. Wild-type CocE (open bars) appears to inactivate between 30-35° C. whereas T172R/G173Q (shaded bars) and L169K (solid) both display enhance thermal stability (inactivation at 40-45° C.).
To test whether the improved enzymatic stability at 37° C. represents improved thermal stability of the protein fold, the capacity of the CocE at progressively higher temperatures were assessed (FIG. 26). The activity of wt CocE plummets precipitously after 30 min at approximately 30-35° C. Both L169K and T172R/G173Q each are inactivated at a higher temperature (40-45° C.). Circular dichroism analysis (near UV analysis) at varying temperatures, comparing wt-CocE and T172R/G173Q have melting temperatures in concordance with the loss of catalytic activity.

Data set [4] is described as follows: Circular dichroism melting temperature of CocE proteins alone. In kind it is physicochemical. Conditions: circular dichroism, enzyme alone. (Circular dichroism is widely used to follow secondary structure.)
Procedure: Further characterization of the stability of wild type (WT) CocE and thermostable mutants was performed through circular dichroism, which detects small changes in protein conformation and structure. Analysis by repeated CD measurements at increasing temperatures allows analysis of the thermodynamics and melting temperature (TM) of the protein, so long as the melting is reversible (i.e. the protein resumes it's original conformation upon cooling). […] However CD is still of value in determining the temperature to unfolding.
Data set [5] has as its system cocaine-induced lethality. Briefly: In vivo potency of protection against cocaine-induced lethality. More on the design: species or system NIH-Swiss mice. Particulars: i.v. pretreatment 1 min prior to i.p. cocaine.
In data set [6] the test system is cocaine-induced lethality. The data set is described as follows: In vivo duration of protection against cocaine-induced lethality. Particulars: 1 mg i.v.; cocaine 180 mg/kg i.p. More on the design: species or system NIH-Swiss mice. How it is done: In vivo protection against cocaine lethality. Male NIH-Swiss mice (25-32 g) were obtained from Harlan Inc. (Indianapolis, Ind.) and were housed in groups of 6 mice per cage. All mice were allowed ad libitum access to food and water, and were maintained on a 12-h light-dark cycle with lights on at 06.30 AM in a room kept at a temperature of 21-22° C. Experiments were performed in accordance with the Guide for the Care and Use of Laboratory Animals as adopted and promulgated by the National Institutes of Health. The experimental protocols were approved by the University Committee on the Use and Care of Animals at the University of Michigan.
Cocaine-induced toxicity was characterized by the occurrence of lethality, as defined by the cessation of observed movement and respiration. Mice were placed individually in Plexiglas observation chambers (16×28×20 cm high) to be habituated for 15 min before drug administration. Following intra-peritoneal (i.p.) cocaine administration, the mouse was immediately placed individually in the same chamber for observation. The presence or absence of lethality was recorded for 60 min following cocaine administration. The mouse was placed in a small restraint chamber (Outer tube diameter: 30 mm; Inner tube diameter: 24 mm) that left the tail exposed. The tail was cleansed with an alcohol wipe and a 30G1/2 precision glide needle (Fisher Scientific, Pittsburgh, Pa.) was inserted into one of the side veins for infusion. The i.v. injection volume of CocE or CocE mutant was 0.2 mL per mouse. Sterile gauze and pressure were applied to the injection site to staunch the bleeding.
Lethality was monitored following injection at 1, 5, 10, or 30 min, or 1, 2, 3, 4, 5 hours after enzyme administration. Each treatment used 8 mice to assess the percent of lethality (i.e., protection) in mice pretreated with a single dose of an esterase at a single time point.
These values were used to compare the degree of rightward shifts of cocaine's dose-response curve in the absence or presence of the enzyme pretreatment. In the time course study, a time point for duration of protection (i.e., 50% of lethality) was estimated by using each time course curve crossing 50% occurrence of lethality.
Evaluation of in vivo half life. CocE is administered IV to the tail vein in a volume of 0.2 ml. Animals are challenged with 180 mg/kg cocaine delivered intraperitoneally at a given time after CocE administration.

The conditions of data set [7]: mouse, in vivo; cited from earlier work.

B1: wt-CocE: cocaine esterase of Rhodococcus sp. MB 1, SEQ ID NO:1 (protein, listed as Rhodococcus sp.)
chain: MVDGNYSVASNVMVPMRDGVRLAVDLYRPDADGPVPVLLVRNPYDKFDVFAWSTQSTNWLEFVRDGYAVVIQDTRGLFASEGEFVPHVDDEADAEDTLSWILEQAWCDGNVGMFGVSYLGVTQWQAAVSGVGGLKAIAPSMASADLYRAPWYGPGGALSVEALLGWSALIGTGLITSRSDARPEDAADFVQLAAILNDVAGAASVTPLAEQPLLGRLIPWVIDQVVDHPDNDESWQSISLFERLGGLATPALITAGWYDGFVGESLRTFVAVKDNADARLVVGPWSHSNLTGRNADRKFGIAATYPIQEATTMHKAFFDRHLRGETDALAGVPKVRLFVMGIDEWRDETDWPLPDTAYTPFYLGGSGAANTSTGGGTLSTSISGTESADTYLYDPADPVPSLGGTLLFHNGDNGPADQRPIHDRDDVLCYSTEVLTDPVEVTGTVSARLFVSSSAVDTDFTAKLVDVFPDGRAIALCDGIVRMRYRETLVNPTLIEAGEIYEVAIDMLATSNVFLPGHRIMVQVSSSNFPKYDRNSNTGGVIAREQLEEMCTAVNRIHRGPEHPSHIVLPIIKR
Take B1: the “half-time of inactivation, τinact” value in data set [1] is reported as “approximately 25 min”. Also, in data set [2], the “Kcat(mol · s^−1 · mol^−1)” value is recorded as 2323 mol · s^−1 · mol^−1. In addition, the temperature of inactivation in data set [3] is 30-35 °C. The melting temperature result in data set [4] was “approximately 39 °C”. Further, the “protection against cocaine-induced lethality” value in data set [5] is listed as “protected”. Further, in data set [6], the “LT50, pretreatment time to 50% lethality” value is given as “approximately 14 min”. The “effective half-life in the blood stream” value in data set [7] is around 10 min.
